The text below walks through data of patent US20250313627A1 (FUSE BIOTHERAPEUTICS, published 2025).

Assay [1] addresses T1, human ROR1 (Receptor Tyrosine Kinase-Like Orphan Receptor 1) on the cell surface (human, UniProt Q01973 30-937).
T1 construct: whole, on cells; engineered into B16-F10 (high density) and LS174T (low density) cells; also called B16-F10-ROR1-H; LS174T-ROR1-L
Kind of assay: flow cytometry, LS174T cells expressing human ROR1 (low density). The procedure: (§1) As shown in the tables below, mouse B16-F10 melanoma (Tables 9A-9F) or LS174T human colorectal adenocarcinoma (Tables 9G-9H) cells genetically engineered to express human ROR1 at high and low densities, respectively, were stained for flow cytometric analysis with 100 nM of humanized variants of the ROR1 specific VHHs, 5A1 or 2A11 in either a VHH-Fc format or the Ac13 format shown in FIG. 1. Cells were analyzed on a flow cytometer after the primary test article was fluorescently tagged with a goat anti human IgG-Fc specific PE secondary antibody. The positive control used was PE conjugated anti-human ROR1 clone 2A2. Negative controls included a PE labeled mouse IgG Ab, the secondary antibody only, the combination of a Hen Egg Lysozyme (HEL) specific antibody plus goat anti human IgG-Fc specific PE and Fluorescence Minus One (FMO). Other controls included the non-humanized version of 5A1-Fc (FUSE179), 2A11-Fc (FUSE112) and 5A1-Ac13 (FUSE488). Humanized variants were generated using computational design (FUSE489, FUSE497-498, FUSE563, FUSE569-570, and BI-HU9-VHH11-33), a yeast display library in which mutations were inserted into the Vernier zone residues of human framework indicated in GenBank accession number M99660 (FUSE524-525, FUSE589, FUSE597-598, FUSE537, FUSE661-662, BI-HU9-HK and BI-HU9-HK-1), and a second yeast display library in which mutations were inserted into the Vernier zone residues of human framework indicated in GenBank accession number AWH66715 and amino acid position 103 within CDR3 (FUSE559, FUSE590-596, BI-HU9-VH9-1, FUSE654-655 and FUSE661-662. Affinity matured variants of FUSE559 were also generated using computational design (F22158101-21; Table 9H).
A general note: A flow cytometer gives signals particle by particle.

Assay [2] concerns the target T1, human ROR1 (Receptor Tyrosine …). The assay is described as follows: flow cytometry, B16-F10 cells expressing human ROR1 (high density). The procedure:
as §1

Assay [3] has the same target. The description is as above. How it is done:
as §1
This is another data set of the same source.

Assay [4] has the same target. Described as above. How it is done:
as §1
This is another data set of the same source.

Assay [5] deals with T2, recombinant His tagged human ROR1 (human, UniProt Q01973 30-403, limits assumed).
T2 construct: Analyte in the BLI assay; also called Human ROR1-His; recombinant ROR1
The assay is described as follows: BLI (Octet), VHH-Fc loaded on the biosensor, His tagged ROR1 in solution. A general note: In BLI a coated tip is dipped into the sample, and binding shifts an interference pattern.

Assay [6] addresses T2, recombinant His tagged human ROR1. Kind of assay: BLI (Octet), FUSE protein on the tip, His tagged ROR1 in solution; 2A11 parental VHH-Fc. How it is done: (§2) As shown in FIGS. 5A-5D, the binding affinities (KD) of TCEs for ROR1 were assessed. We examined the magnitude by which several TCEs and mutants thereof bind to recombinant ROR1. Kinetic binding graphs were generated via Bio-Layer Interferometry (BLI) using an Octet system. For each TCE, the biosensor tips were coated with FUSE proteins at 15 μg/ml and probed with either recombinant His tagged ROR1 at concentrations ranging from 100 pM to 10 μM. […] The binding affinity (KD), on rate (k-on) and off rate (k-dis), are summarized for ROR1 in FIG. 5D.
(§3) We further examined the impact of mutating the cysteine residues located in CDR1 and CDR3 of 2A11 VHH and 5A1 VHH.

The target is the same in assay [7]. The assay is described as follows: BLI (Octet), VHH-Fc loaded on the biosensor, His tagged ROR1 in solution; column 'kdis(1/s)'.
The target of assay [8] is T1, human ROR1 (Receptor Tyrosine …). Kind of assay: flow cytometry, LS174T cells expressing human ROR1 (low density). The procedure:
as §1
The source holds these as a separate data set.

The target is the same in assay [9]. Kind of assay: flow cytometry, B16-F10 cells expressing human ROR1 (high density). How it is done:
as §1
This is another data set of the same source.

For assay [10] the target is unchanged. The description is as above. The procedure: as §1
This is another data set of the same source.

The target in assay [11] is T2, recombinant His tagged human ROR1. Kind of assay: BLI (Octet), VHH-Fc loaded on the biosensor, His tagged ROR1 in solution. This is another data set of the same source.
Assay [12] has the same target. Kind of assay: BLI (Octet), FUSE protein on the tip, His tagged ROR1 in solution; 5A1 parental VHH-Fc. How it is done: as §2, §3
For assay [13] the target is unchanged. Kind of assay: BLI (Octet), VHH-Fc loaded on the biosensor, His tagged ROR1 in solution; column 'kdis(1/s)'. The source holds these as a separate data set.
The target of assay [14] is T1, human ROR1 (Receptor Tyrosine …). The assay is described as follows: flow cytometry on B16-F10 cells engineered to express human ROR1, secondary antibody to the IgG1 Fc. How it is done:
As shown in FIG. 15 the apparent binding affinity (EC50-binding) of the ROR1 specific VHH-Fc incorporating either the non humanized VHH clone 5A1 (FUSE179; black circle), the humanized clone 5A1-FA9-HK1 (FUSE559; black square) or the humanized clone 5A1-HK1 (FUSE524; black triangle) was calculated. Shown is a non-linear x-y plot of binding to B16-F10 cell engineered to express human ROR1 relative to the concentration of test article used for staining. A Hen Egg Lysozyme (HEL)-specific antibody was used as the negative isotype control. Binding was measured via flow cytometry using a fluorescently labeled secondary antibody specific for the Fc domain of IgG1. A summary table of EC50s and maximum MFI is shown beneath under the graph.

The target of assay [15] is T2, recombinant His tagged human ROR1. The assay is described as follows: SPR (Biacore 8K), recombinant human ROR1 amine-coupled on a CM5 chip (4400 RU), analyte 200nM, 1:1 binding fit [table below it]. How it is done:
(§4) Protein test article binding to recombinant human ROR1 (Acro Biosystems, RO1-H522y) was detected on a BIAcore 8K (Cytiva) biosensor system using an SPR assay. Briefly, a carboxymethylated CM5 sensor chip was activated with 1:1 mixture of 0.4 M N-ethyl-N-(3-dimethylaminopropyl) carbodiimide and 0.1 M′ N-hydroxysuccinimide. Recombinant human ROR1 in 10 mM NaOAc (pH5) was then immobilized on the sensor chip by amine-coupling according to the manufacturer's instructions to yield the stable RU of 4400. Unreacted sites were blocked with 1M ethanolamine/HCl (pH 8). Control flow cells (blank) were activated and blocked in the absence of ROR1. Flow cells were routinely equilibrated with running buffer (PBS, 0.005% surfactant P20). Test article proteins used for assessment of binding to recombinant human ROR1 binding were diluted in HBS-EP running buffer and injected into the sensor chip at different concentrations. […] Data from duplicate assays were modeled for binding equilibrium and dot plots for 200 nM of protein test article was calculated. Association constant (ka), dissociation constant (kd) and binding affinity (KD=kd/ka) were generated from integrated software in the BIAcore 8K system.
(§5) Shown are sensorgrams of surface plasmon resonance (SPR) data generated via Biacore analysis. A summary table of binding affinity (KD), on rate (k-a) and off rate (kd) is shown below FIG. 16B.

Assay [16] has the same target. The assay is described as follows: SPR (Biacore 8K), recombinant human ROR1 amine-coupled on a CM5 chip (4400 RU), analyte 200nM, 1:1 binding fit; column 'kd (1/s)' [table below it]. The procedure: as §4, §5
The target is the same in assay [17]. The assay is described as follows: SPR (Biacore 8K), recombinant human ROR1 amine-coupled on a CM5 chip (4400 RU), analyte 200nM, 1:1 binding fit; column '1:1 binding ka (1/Ms)' [table below it]. How it is done: as §4, §5
In general terms: In SPR one partner is held on a chip, and binding of the other changes the refractive index at the surface.

T1 sequence (Q01973 30-937): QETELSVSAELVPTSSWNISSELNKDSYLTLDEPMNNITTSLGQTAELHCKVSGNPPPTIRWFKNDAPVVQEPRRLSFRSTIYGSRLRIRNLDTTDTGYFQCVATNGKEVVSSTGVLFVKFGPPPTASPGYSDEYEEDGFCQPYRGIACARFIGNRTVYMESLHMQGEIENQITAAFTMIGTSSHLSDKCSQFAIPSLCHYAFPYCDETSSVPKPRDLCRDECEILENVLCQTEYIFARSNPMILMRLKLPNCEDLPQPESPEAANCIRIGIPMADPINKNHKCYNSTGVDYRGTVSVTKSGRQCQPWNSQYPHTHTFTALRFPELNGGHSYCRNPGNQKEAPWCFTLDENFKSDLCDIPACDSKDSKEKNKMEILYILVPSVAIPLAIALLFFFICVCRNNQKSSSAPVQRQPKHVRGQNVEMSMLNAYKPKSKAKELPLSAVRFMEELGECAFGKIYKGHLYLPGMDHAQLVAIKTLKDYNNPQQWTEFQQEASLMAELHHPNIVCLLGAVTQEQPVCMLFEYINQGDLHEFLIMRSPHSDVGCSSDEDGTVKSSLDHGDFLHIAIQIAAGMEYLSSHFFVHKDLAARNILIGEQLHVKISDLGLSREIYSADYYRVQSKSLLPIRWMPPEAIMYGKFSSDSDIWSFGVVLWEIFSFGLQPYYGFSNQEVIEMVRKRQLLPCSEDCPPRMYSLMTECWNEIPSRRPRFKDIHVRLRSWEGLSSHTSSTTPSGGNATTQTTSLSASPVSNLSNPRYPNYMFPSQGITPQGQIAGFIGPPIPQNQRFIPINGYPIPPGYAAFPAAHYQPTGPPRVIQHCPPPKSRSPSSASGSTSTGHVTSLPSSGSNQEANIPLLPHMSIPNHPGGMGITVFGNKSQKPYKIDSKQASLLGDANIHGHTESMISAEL
T2 sequence (Q01973 30-403 limits assumed): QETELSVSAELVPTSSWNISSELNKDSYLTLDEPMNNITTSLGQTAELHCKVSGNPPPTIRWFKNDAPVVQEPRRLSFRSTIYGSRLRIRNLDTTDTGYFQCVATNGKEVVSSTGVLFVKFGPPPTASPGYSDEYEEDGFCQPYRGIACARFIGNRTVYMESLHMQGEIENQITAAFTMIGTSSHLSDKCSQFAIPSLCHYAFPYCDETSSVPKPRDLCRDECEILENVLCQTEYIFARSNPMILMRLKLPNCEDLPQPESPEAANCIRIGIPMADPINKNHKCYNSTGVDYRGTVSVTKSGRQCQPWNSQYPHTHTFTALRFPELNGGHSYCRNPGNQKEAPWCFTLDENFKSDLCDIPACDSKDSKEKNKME

B1: FUSE-112 (2A11 VHH-human-Fc fusion protein) (Fc fusion)
chain: QVQLQESGGGSVPAGGSLRLSCAASGSTYSANCMGWFRQAPGKEREEVASMSIRSGRTYYSDSVKGRFTISQDGSKNTLYLQLNSLKAEDTALYYCAAAYGGSRCVYNYRGQGTQVTVSS
notes: VHH-human-Fc fusion; non-humanized 2A11; also called 2A11-Fc; not shown: human Fc
Broadly, the Kd is the constant that tells how readily two partners part at equilibrium. What is called kon is the second-order rate constant of association. For orientation: koff means a measure of how fast the partners let go of each other. Consider B1, for which the MFI in assay [1] worked out at 4340; in assay [2], 11900; in assay [3], 7840; in assay [4] it was 208000. The equilibrium dissociation constant (Kd) in assay [5] is 42.4 nM; in [6], around 4 nM. For the same molecule, the on-rate (kon) in [5] came to 43100 M⁻¹ s⁻¹. In assay [7], the koff turned out to be 0.00183 s⁻¹.

B2: FUSE-179 (5A1 VHH-human-Fc fusion protein) (Fc fusion)
chain: QVQLQESGGGSVQAGGSLKLSCTASGYTNRLKCMGWFRQAPGKEREEIATISTGTGNTYYADSVKGRFTFSQDKVKNTVYLQMNTLKPDDTGMYYCAADVRPDGTTCHYNSGGQGTQVTVSS
notes: VHH-human-Fc fusion; non-humanized 5A1; not shown: human Fc
As a reminder, the EC50 is the concentration giving half of the maximal effect. For the molecule B2, the MFI in assay [1] came to 836; in assay [8] it was 3060; in assay [9] it was 4220; in assay [10] it was 3730; in assay [2], 8480; in assay [3], 4480. The MFI in assay [4] stood at 93800. Besides, the figures for the Kd in [11], in assay [12] and in assay [15] were 36 nM, around 4 nM and 7.38 nM, respectively. Besides, the kon in [11] came to 48200 M⁻¹ s⁻¹; in [17], 144000 M⁻¹ s⁻¹. Besides, the koff was 0.00174 s⁻¹ in assay [13] and 0.00106 s⁻¹ in assay [16]. Further, the EC50 in [14] worked out at 2.04 nM. Also, the “Max MFI” value in [14] amounted to 4900 MFI.
